Measurements: patent US20230167426

Target: T1, AcrE2 (type I-E anti-CRISPR from Pseudomonas phage JBD88a)
T1 chain: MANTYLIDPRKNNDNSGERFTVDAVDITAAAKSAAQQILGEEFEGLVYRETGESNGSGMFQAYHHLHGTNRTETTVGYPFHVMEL

B1: 6×His-tagged NmeCas9 (Neisseria meningitidis Cas9) (protein)
chain: MAAFKPNSINYILGLDIGIASVGWAMVEIDEEENPIRLIDLGVRVFERAEVPKTGDSLAMARRLARSVRRLTRRRAHRLLRTRRLLKREGVLQAANFDENGLIKSLPNTPWQLRAAALDRKLTPLEWSAVLLHLIKHRGYLSQRKNEGETADKELGALLKGVAGNAHALQTGDFRTPAELALNKFEKESGHIRNQRSDYSHTFSRKDLQAELILLFEKQKEFGNPHVSGGLKEGIETLLMTQRPALSGDAVQKMLGHCTFEPAEPKAAKNTYTAERFIWLTKLNNLRILEQGSERPLTDTERATLMDEPYRKSKLTYAQARKLLGLEDTAFFKGLRYGKDNAEASTLMEMKAYHAISRALEKEGLKDKKSPLNLSPELQDEIGTAFSLFKTDEDITGRLKDRIQPEILEALLKHISFDKFVQISLKALRRIVPLMEQGKRYDEACAEIYGDHYGKKNTEEKIYLPPIPADEIRNPVVLRALSQARKVINGVVRRYGSPARIHIETAREVGKSFKDRKEIEKRQEENRKDREKAAAKFREYFPNFVGEPKSKDILKLRLYEQQHGKCLYSGKEINLGRLNEKGYVEIDHALPFSRTWDDSFNNKVLVLGSENQNKGNQTPYEYFNGKDNSREWQEFKARVETSRFPRSKKQRILLQKFDEDGFKERNLNDTRYVNRFLCQFVADRMRLTGKGKKRVFASNGQITNLLRGFWGLRKVRAENDRHHALDAVVVACSTVAMQQKITRFVRYKEMNAFDGKTIDKETGEVLHQKTHFPQPWEFFAQEVMIRVFGKPDGKPEFEEADTLEKLRTLLAEKLSSRPEAVHEYVTPLFVSRAPNRKMSGQGHMETVKSAKRLDEGVSVLRVPLTQLKLKDLEKMVNREREPKLYEALKARLEAHKDDPAKAFAEPFYKYDKAGNRTQQVKAVRVEQVQKTGVWVRNHNGIADNATMVRVDVFEKGDKYYLVPIYSWQVAKGILPDRAVVQGKDEEDWQLIDDSFNFKFSLHPNDLVEVITKKARMFGYFASCHRGTGNINIRIHDLDHKIGKNGILEGIGVKTALSFQKYQIDELGKEIRPCRLKKRPPVR
  in vitro DNA cleavage by NmeCas9: Cleavage was unaffected by prior incubation of NmeCas9 with increasing amounts of the control, type I-specific anti-CRISPR, AcrE2
